Target: the molecule itself
Test: SEC

B1: streptococcal coaggregation regulator (ScaR) (natural protein, Streptococcus gordonii, UniProt Q9RFN3 1-215, looked up)
chain: MTPNKEDYLKCLYELGTRHNKITNKEIAQLMQVSPPAVTEMMKKLLAEELLIKDKKAGYLLTDLGLKLVSDLYRKHRLIEVFLVHHLGYTTEEIHEEAEVLEHTVSDHFVERLDQLLDYPKACPHGGTIPAKGELLVEKHKLTLEEAKEKGDYILARVHDNFDLLTYLERNGLQVGKTIRFLGYDDFSHLYSLEVDGQEIQLAQPIAQQIYVEKI
With B1 the “stoichiometry N” value was 2.

Source: PMC3586275 (Biochemistry, 2009)
